Tested on: peptide library, one residue held at a place counted from the Y acceptor
Assay: relative phosphorylation of the sub-library (ratio to the mean residue at this position); higher = residue favoured
Summary of the method: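 Biotinylated Tyr-centred peptide library mixtures, each fixing one residue at one position from −5 to +5, were incubated with purified recombinant kinases in 384-well plates for 90 min with 50 μM ATP plus γ-32P-ATP. Streptavidin membranes captured the peptides, which were rinsed and quantified by phosphorimaging and ImageQuant. At each position, intensities were divided by the sum of the 18 randomized residues (16 for the Ser/Thr-free library) and multiplied by that number. Each value is phosphorylation relative to the mean randomized residue.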

TNNI3K, construct: aa1-727, human, sequence (Q59H18 1-727, looked up): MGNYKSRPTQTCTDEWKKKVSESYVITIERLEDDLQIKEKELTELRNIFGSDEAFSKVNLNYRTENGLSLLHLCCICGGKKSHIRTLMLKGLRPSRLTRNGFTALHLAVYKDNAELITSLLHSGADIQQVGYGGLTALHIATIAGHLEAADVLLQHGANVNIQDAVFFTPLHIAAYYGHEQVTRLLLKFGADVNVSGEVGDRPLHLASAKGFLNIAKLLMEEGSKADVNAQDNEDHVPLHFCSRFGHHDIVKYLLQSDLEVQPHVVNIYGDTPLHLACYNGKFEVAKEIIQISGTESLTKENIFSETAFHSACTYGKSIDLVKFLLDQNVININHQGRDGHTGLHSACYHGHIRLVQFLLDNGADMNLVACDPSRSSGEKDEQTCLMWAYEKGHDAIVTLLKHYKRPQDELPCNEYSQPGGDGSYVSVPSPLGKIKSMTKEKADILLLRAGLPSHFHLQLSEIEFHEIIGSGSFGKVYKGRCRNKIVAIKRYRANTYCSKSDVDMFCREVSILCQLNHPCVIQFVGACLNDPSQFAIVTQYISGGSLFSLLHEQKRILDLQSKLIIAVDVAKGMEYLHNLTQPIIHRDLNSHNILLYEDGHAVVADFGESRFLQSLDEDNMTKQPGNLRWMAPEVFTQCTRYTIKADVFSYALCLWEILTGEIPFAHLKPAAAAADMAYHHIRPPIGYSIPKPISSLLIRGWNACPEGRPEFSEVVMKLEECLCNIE
TESK1, construct: aa1-345, human, sequence (Q15569 1-345, looked up): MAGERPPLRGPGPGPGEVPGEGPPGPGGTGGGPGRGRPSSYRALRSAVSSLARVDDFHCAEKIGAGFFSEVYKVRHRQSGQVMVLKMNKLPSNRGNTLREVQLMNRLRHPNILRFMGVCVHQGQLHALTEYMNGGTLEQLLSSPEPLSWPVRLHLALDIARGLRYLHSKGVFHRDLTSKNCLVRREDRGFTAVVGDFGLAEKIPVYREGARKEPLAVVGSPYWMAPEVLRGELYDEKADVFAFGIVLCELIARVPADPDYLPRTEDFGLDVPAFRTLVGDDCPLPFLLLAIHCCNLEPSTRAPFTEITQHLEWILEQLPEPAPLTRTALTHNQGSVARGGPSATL
TEK, construct: aa771-end, human, sequence (Q02763 771-1124, looked up): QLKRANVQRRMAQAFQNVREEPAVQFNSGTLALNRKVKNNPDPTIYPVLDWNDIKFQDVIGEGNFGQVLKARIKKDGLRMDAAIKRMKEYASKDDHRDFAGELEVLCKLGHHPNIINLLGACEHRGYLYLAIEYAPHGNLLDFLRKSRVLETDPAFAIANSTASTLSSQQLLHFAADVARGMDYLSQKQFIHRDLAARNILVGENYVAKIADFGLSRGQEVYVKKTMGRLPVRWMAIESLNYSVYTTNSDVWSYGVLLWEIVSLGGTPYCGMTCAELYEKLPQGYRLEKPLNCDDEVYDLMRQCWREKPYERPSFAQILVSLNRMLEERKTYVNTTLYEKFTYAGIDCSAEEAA

TEK, construct: aa771-end, human (from UniProt Q02763)
relative phosphorylation
Conditions	at +1	at +2	at +3	at +4	at +5	at -1	at -2	at -3	at -4	at -5
A fixed	0.824	0.564	0.495	0.84	1.16	0.673	0.88	0.762	1.02	0.755
D fixed	0.525	0.606	0.254	0.752	0.411	0.863	0.972	0.981	0.932	0.844
E fixed	1.78	1.11	0.233	0.854	0.367	1.07	1.19	1.06	0.927	0.772
F fixed	0.935	1.43	1.97	1.16	0.471	1.19	0.833	1.21	0.976	1.18
G fixed	0.429	0.332	0.395	1.05	1.68	0.512	1.11	0.972	1.3	1.16
H fixed	1.12	0.955	1.47	1.06	0.691	1.2	1.09	1.08	0.997	1.03
I fixed	1.37	1.07	1.89	0.823	0.478	1.42	0.936	0.794	0.792	0.969
K fixed	0.577	0.6	0.665	0.986	0.996	0.594	0.83	0.828	1.26	1.26
L fixed	1.06	1.67	1.49	1.11	0.509	1.92	0.94	0.854	0.908	0.898
M fixed	1.16	1.4	1.18	1.42	0.608	1.5	0.868	0.988	0.839	0.948
N fixed	0.54	1.01	0.429	0.846	0.844	1.03	1.15	1.27	1.09	1.14
P fixed	1.31	0.606	0.505	1.43	3.89	0.878	0.913	1	1.07	0.967
Q fixed	1.15	0.913	0.581	1.31	0.866	0.891	1.25	1.01	1.16	1.03
R fixed	0.705	0.717	0.658	1.05	0.944	0.56	0.935	0.936	1.22	1.37
S fixed	0.816	0.725	0.445	0.795	1.97	0.756	1.06	1.11	0.917	0.963
T fixed	0.951	0.873	0.746	0.734	1.03	0.921	1.08	1.06	0.789	0.955
V fixed	1.89	1.03	1.81	0.871	0.498	1.22	0.926	0.941	0.787	0.852
W fixed	0.848	2.39	2.79	0.901	0.587	0.812	1.02	1.15	1.03	0.901
pThr fixed	0.806	1.6	0.252	0.346	0.313	1.22	0.849	0.769	0.71	0.686
pTyr fixed	2.39	1.81	0.341	0.473	0.276	1.97	0.786	1.34	0.874	0.643

TESK1, construct: aa1-345, human (from UniProt Q15569)
relative phosphorylation
Conditions	at +1	at +2	at +3	at +4	at +5	at -1	at -2	at -3	at -4	at -5
A fixed	0.921	0.778	0.879	0.762	0.876	0.971	0.967	0.874	0.973	0.938
D fixed	0.992	0.998	0.881	0.902	0.794	0.977	0.822	0.931	0.858	0.85
E fixed	0.876	0.917	0.871	0.854	0.839	0.953	0.833	0.776	0.792	0.742
F fixed	0.935	1.11	0.936	0.966	0.869	0.778	0.911	0.926	0.984	0.883
G fixed	0.887	0.899	0.928	1.03	0.915	1	1.09	1.11	1.13	1.05
H fixed	1.01	1.09	1.06	1.07	1.17	0.962	0.976	0.915	0.949	0.975
I fixed	0.796	0.626	0.682	0.781	0.734	0.774	0.952	0.79	0.823	0.861
K fixed	1.13	1.27	1.23	1.3	1.15	1.18	1.34	1.25	1.26	1.35
L fixed	0.81	0.812	0.783	0.913	0.807	0.831	0.92	0.918	0.816	0.862
M fixed	0.76	0.796	0.831	0.928	0.841	0.835	0.81	0.846	0.869	0.82
N fixed	1.05	1.16	1.11	0.978	0.964	1.17	1.01	0.971	0.921	0.964
P fixed	1.02	1.09	1.15	1.28	1.05	1.26	1.07	1.36	1.16	1.1
Q fixed	1.09	1.09	1.02	1.09	0.929	1	0.842	1.04	0.891	0.831
R fixed	1.18	1.25	1.23	1.19	1.27	1.26	1.27	1.29	1.2	1.27
V fixed	0.817	0.69	0.72	0.764	0.713	0.743	0.946	0.864	0.875	0.881
W fixed	1.72	1.44	1.69	1.19	2.09	1.29	1.24	1.14	1.5	1.62
pThr fixed	0.988	0.893	0.765	0.809	0.615	1.05	0.932	0.934	0.929	0.776
pTyr fixed	0.746	0.819	0.738	0.714	0.627	0.861	0.798	0.896	0.669	0.711

TNK2, construct: aa110-476, human (from UniProt Q07912)
relative phosphorylation
Conditions	at +1	at +2	at +3	at +4	at +5	at -1	at -2	at -3	at -4	at -5
A fixed	2.37	1	0.658	1.04	1.1	0.664	1.24	1.03	1.2	1.13
D fixed	0.799	0.461	0.257	0.749	1.13	0.346	0.917	0.791	0.737	0.812
E fixed	1.01	0.72	0.202	0.835	1.03	0.323	1	0.671	0.743	0.783
F fixed	0.716	1.39	1.03	0.929	1.22	0.934	0.737	0.901	1.05	0.971
G fixed	1.5	0.489	0.492	1.71	1.08	0.562	1.25	1.18	1.23	1.47
H fixed	0.684	0.724	0.513	1.01	0.897	1.59	1	0.972	1	1.05
I fixed	0.759	1.25	3.15	0.888	0.904	1.64	0.74	0.744	0.767	0.834
K fixed	0.587	0.915	0.316	0.774	0.694	1.3	0.894	1.07	1.2	1.12
L fixed	0.684	0.964	2.32	0.742	1.15	1.73	0.694	0.911	0.779	0.787
M fixed	1.37	1.03	1.07	1.02	0.97	1.26	0.69	0.924	0.89	0.815
N fixed	0.613	0.755	0.359	0.903	0.836	0.7	1.03	1.04	0.958	0.996
P fixed	0.233	1.26	0.881	1.55	1.16	0.809	1.69	1.36	1.3	1.22
Q fixed	1.5	1.03	0.437	0.873	0.955	1.15	1.21	1.03	1.17	0.966
R fixed	0.89	1.32	0.367	0.995	0.543	1.82	1.05	1.32	1.36	1.31
S fixed	1.18	1.02	0.543	1.21	1.01	0.626	1.16	1.12	0.824	0.952
T fixed	1.05	1.25	0.94	1.03	1.14	0.936	0.987	1.02	0.762	0.951
V fixed	1.04	1.32	2.39	0.846	0.949	0.951	0.952	0.825	0.785	0.755
W fixed	1.03	1.11	2.07	0.898	1.22	0.658	0.759	1.1	1.25	1.08
pThr fixed	0.667	1.05	0.311	0.814	0.654	0.486	0.969	0.721	0.716	0.775
pTyr fixed	0.727	2.16	0.495	0.959	1.03	0.669	0.714	0.904	0.888	1

TNNI3K, construct: aa1-727, human (from UniProt Q59H18)
relative phosphorylation
Conditions	at +1	at +2	at +3	at +4	at +5	at -1	at -2	at -3	at -4	at -5
A fixed	1.74	0.816	0.787	0.992	0.912	1.78	1.09	0.969	1.16	1.17
D fixed	0.328	0.35	0.376	0.377	0.577	1.18	0.589	0.741	0.664	0.668
E fixed	0.277	0.288	0.455	0.35	0.483	1.23	0.717	0.683	0.757	0.538
F fixed	0.587	0.975	1.03	1.01	1.04	0.637	0.998	1.12	1.05	1.09
G fixed	0.605	0.86	0.909	1.12	0.791	1.1	1.34	1.34	1.5	1.35
H fixed	0.57	1.04	1.22	0.997	1.04	0.943	1.18	1.13	1.04	0.979
I fixed	2.26	0.78	0.929	0.945	0.795	0.572	1.03	0.914	0.894	0.958
K fixed	0.896	1.83	1.68	1.24	1.76	0.641	0.992	0.982	1.22	1.22
L fixed	0.79	0.65	1.02	1.11	1.01	0.477	0.805	0.863	0.949	1.06
M fixed	0.914	0.661	0.751	1.1	0.948	0.553	0.738	0.781	0.853	0.787
N fixed	0.62	0.853	0.837	0.74	0.85	1.44	1.02	0.99	0.765	0.77
P fixed	0.555	0.774	0.847	1.21	1.06	1.13	0.928	1.27	1.11	1.18
Q fixed	0.746	0.978	1.13	0.952	0.861	1.24	1.05	0.815	0.925	0.808
R fixed	1.23	2.79	2.39	1.73	1.98	0.687	1.4	1.07	1.25	1.21
V fixed	2.88	0.736	0.835	0.979	0.83	0.701	0.996	1.05	0.947	0.98
W fixed	0.784	1.39	0.892	1.27	1.08	0.579	1.11	1.37	1.27	1.46
pThr fixed	0.215	0.234	0.259	0.263	0.44	0.253	0.593	0.715	0.515	0.622
pTyr fixed	0.365	0.427	0.38	0.365	0.583	0.479	0.832	1.21	0.898	0.776

From the supplement of paper PMC11136658
